Measured values from publication PMC11476191, “Towards controlling activity of a peptide asparaginyl ligase (PAL) by lumazine synthetase compartmentalization” (Faraday Discussions, 2024).
One block for each molecule: values may come before it.

Legend:
[1] = target: AaLS-13 (Aquifex aeolicus); assay: SEC; Ni-NTA eluate of the co-expressed proteins on Superose 6; 50 mM sodium phosphate pH 7.0, 150 mM NaCl, 1 mM EDTA, 1 mM TCEP; fractions by SDS-PAGE; repeated in buffer at pH 7.0 and 7.4
[2] = target: the molecule itself; assay: negative stain transmission electron microscopy; purified protein samples (0.05-0.15 mg/mL) on carbon-covered copper grids, uranyl acetate stain, 200 kV

ratio of cpAaLS-OaAEP1-C247A to AaLS-13 in the cage (estimated from SDS-PAGE band intensity) (AaLS-13 per cpAaLS-OaAEP1-C247A) [1]: 3.3
Molecule: cpAaLS-OaAEP1-C247A

B1: AaLS-13 (other, Aquifex aeolicus)
chain: MEIYEGKLTAEGLRFGIVASRFNHALVGRLVEGAIDCIVRHGGREEDITLVCVPGSWEIPVAAGELARKEDIDAVIAIGVLIEGAEPHFDYIASEVSKGLANLSLELRKPISFGDITDDELEEAIECAGTEHGNKGWEAALSAIEMANLFKSLR
notes: negatively supercharged engineered variant of lumazine synthase from Aquifex aeolicus (AaLS); Self-assembles into a protein cage; also called His6-tagged AaLS-13; AsLS-13; source: E. coli SHuffle T7 Express, co-expressed with cpAaLS-OaAEP1-C247A (IPTG induction); in lysate, then purified (Ni-NTA IMAC, SEC)
binding result [2]: binds
